From patent US8999727

Assays:
[1] = molecular target: truncated TSH receptor chimera B (extracellular portion) fused with the secretory alkaline phosphatase (human TSHR with rat LH-CGR subsequence); experiment: bridge assay: standard at 15.0 IU/L on plate-bound TSH receptor chimera B, detected with SEAP-chimera B; RLU relative to zero serum
[2] = molecular target: truncated TSH receptor chimera B (extracellular portion) fused with the secretory alkaline phosphatase (human TSHR with rat LH-CGR subsequence); experiment: bridge assay: standard at 0.2 IU/L on plate-bound TSH receptor chimera B, detected with SEAP-chimera B, chemiluminescence
[3] = molecular target: truncated TSH receptor chimera B (extracellular portion) fused with the secretory alkaline phosphatase (human TSHR with rat LH-CGR subsequence); experiment: bridge assay: standard at 0.3 IU/L on plate-bound TSH receptor chimera B, detected with SEAP-chimera B, chemiluminescence
[4] = molecular target: truncated TSH receptor chimera B (extracellular portion) fused with the secretory alkaline phosphatase (human TSHR with rat LH-CGR subsequence); experiment: bridge assay: standard at 1.0 IU/L on plate-bound TSH receptor chimera B, detected with SEAP-chimera B; RLU relative to zero serum
[5] = molecular target: truncated TSH receptor chimera B (extracellular portion) fused with the secretory alkaline phosphatase (human TSHR with rat LH-CGR subsequence); experiment: bridge assay: standard at 0.7 IU/L on plate-bound TSH receptor chimera B, detected with SEAP-chimera B; RLU relative to zero serum
[6] = molecular target: truncated TSH receptor chimera B (extracellular portion) fused with the secretory alkaline phosphatase (human TSHR with rat LH-CGR subsequence); experiment: bridge assay: standard at 0.6 IU/L on plate-bound TSH receptor chimera B, detected with SEAP-chimera B, chemiluminescence
[7] = molecular target: truncated TSH receptor chimera B (extracellular portion) fused with the secretory alkaline phosphatase (human TSHR with rat LH-CGR subsequence); experiment: bridge assay: standard at 0.1 IU/L on plate-bound TSH receptor chimera B, detected with SEAP-chimera B; RLU relative to zero serum
[8] = molecular target: truncated TSH receptor chimera B (extracellular portion) fused with the secretory alkaline phosphatase (human TSHR with rat LH-CGR subsequence); experiment: bridge assay: standard at 0.9 IU/L on plate-bound TSH receptor chimera B, detected with SEAP-chimera B, chemiluminescence
[9] = molecular target: truncated TSH receptor chimera B (extracellular portion) fused with the secretory alkaline phosphatase (human TSHR with rat LH-CGR subsequence); experiment: bridge assay: standard at 0.3 IU/L on plate-bound TSH receptor chimera B, detected with SEAP-chimera B; RLU relative to zero serum
[10] = molecular target: truncated TSH receptor chimera B (extracellular portion) fused with the secretory alkaline phosphatase (human TSHR with rat LH-CGR subsequence); experiment: bridge assay: standard at 15.0 IU/L on plate-bound TSH receptor chimera B, detected with SEAP-chimera B, chemiluminescence
[11] = molecular target: truncated TSH receptor chimera B (extracellular portion) fused with the secretory alkaline phosphatase (human TSHR with rat LH-CGR subsequence); experiment: bridge assay: standard at 0.4 IU/L on plate-bound TSH receptor chimera B, detected with SEAP-chimera B; RLU relative to zero serum
[12] = molecular target: truncated TSH receptor chimera B (extracellular portion) fused with the secretory alkaline phosphatase (human TSHR with rat LH-CGR subsequence); experiment: bridge assay: standard at 0.9 IU/L on plate-bound TSH receptor chimera B, detected with SEAP-chimera B; RLU relative to zero serum
[13] = molecular target: truncated TSH receptor chimera B (extracellular portion) fused with the secretory alkaline phosphatase (human TSHR with rat LH-CGR subsequence); experiment: bridge assay: standard at 0.5 IU/L on plate-bound TSH receptor chimera B, detected with SEAP-chimera B; RLU relative to zero serum
[14] = molecular target: truncated TSH receptor chimera B (extracellular portion) fused with the secretory alkaline phosphatase (human TSHR with rat LH-CGR subsequence); experiment: bridge assay: standard at 1.0 IU/L on plate-bound TSH receptor chimera B, detected with SEAP-chimera B, chemiluminescence
[15] = molecular target: truncated TSH receptor chimera B (extracellular portion) fused with the secretory alkaline phosphatase (human TSHR with rat LH-CGR subsequence); experiment: bridge assay: standard at 50.0 IU/L on plate-bound TSH receptor chimera B, detected with SEAP-chimera B; RLU relative to zero serum
[16] = molecular target: truncated TSH receptor chimera B (extracellular portion) fused with the secretory alkaline phosphatase (human TSHR with rat LH-CGR subsequence); experiment: bridge assay: standard at 2.0 IU/L on plate-bound TSH receptor chimera B, detected with SEAP-chimera B; RLU relative to zero serum
[17] = molecular target: truncated TSH receptor chimera B (extracellular portion) fused with the secretory alkaline phosphatase (human TSHR with rat LH-CGR subsequence); experiment: bridge assay: standard at 0.8 IU/L on plate-bound TSH receptor chimera B, detected with SEAP-chimera B, chemiluminescence
[18] = molecular target: truncated TSH receptor chimera B (extracellular portion) fused with the secretory alkaline phosphatase (human TSHR with rat LH-CGR subsequence); experiment: bridge assay: standard at 0.2 IU/L on plate-bound TSH receptor chimera B, detected with SEAP-chimera B; RLU relative to zero serum
[19] = molecular target: truncated TSH receptor chimera B (extracellular portion) fused with the secretory alkaline phosphatase (human TSHR with rat LH-CGR subsequence); experiment: bridge assay: standard at 2.0 IU/L on plate-bound TSH receptor chimera B, detected with SEAP-chimera B, chemiluminescence
[20] = molecular target: truncated TSH receptor chimera B (extracellular portion) fused with the secretory alkaline phosphatase (human TSHR with rat LH-CGR subsequence); experiment: bridge assay: standard at 0.1 IU/L on plate-bound TSH receptor chimera B, detected with SEAP-chimera B, chemiluminescence
[21] = molecular target: truncated TSH receptor chimera B (extracellular portion) fused with the secretory alkaline phosphatase (human TSHR with rat LH-CGR subsequence); experiment: bridge assay: standard at 0.6 IU/L on plate-bound TSH receptor chimera B, detected with SEAP-chimera B; RLU relative to zero serum
[22] = molecular target: truncated TSH receptor chimera B (extracellular portion) fused with the secretory alkaline phosphatase (human TSHR with rat LH-CGR subsequence); experiment: bridge assay: standard at 5.0 IU/L on plate-bound TSH receptor chimera B, detected with SEAP-chimera B; RLU relative to zero serum
[23] = molecular target: truncated TSH receptor chimera B (extracellular portion) fused with the secretory alkaline phosphatase (human TSHR with rat LH-CGR subsequence); experiment: bridge assay: standard at 0.4 IU/L on plate-bound TSH receptor chimera B, detected with SEAP-chimera B, chemiluminescence
[24] = molecular target: truncated TSH receptor chimera B (extracellular portion) fused with the secretory alkaline phosphatase (human TSHR with rat LH-CGR subsequence); experiment: bridge assay: standard at 0.7 IU/L on plate-bound TSH receptor chimera B, detected with SEAP-chimera B, chemiluminescence
[25] = molecular target: truncated TSH receptor chimera B (extracellular portion) fused with the secretory alkaline phosphatase (human TSHR with rat LH-CGR subsequence); experiment: bridge assay: standard at 30.0 IU/L on plate-bound TSH receptor chimera B, detected with SEAP-chimera B, chemiluminescence
[26] = molecular target: truncated TSH receptor chimera B (extracellular portion) fused with the secretory alkaline phosphatase (human TSHR with rat LH-CGR subsequence); experiment: bridge assay: standard at 30.0 IU/L on plate-bound TSH receptor chimera B, detected with SEAP-chimera B; RLU relative to zero serum
[27] = molecular target: truncated TSH receptor chimera B (extracellular portion) fused with the secretory alkaline phosphatase (human TSHR with rat LH-CGR subsequence); experiment: bridge assay: standard at 0.5 IU/L on plate-bound TSH receptor chimera B, detected with SEAP-chimera B, chemiluminescence
[28] = molecular target: truncated TSH receptor chimera B (extracellular portion) fused with the secretory alkaline phosphatase (human TSHR with rat LH-CGR subsequence); experiment: bridge assay: standard at 5.0 IU/L on plate-bound TSH receptor chimera B, detected with SEAP-chimera B, chemiluminescence
[29] = molecular target: truncated TSH receptor chimera B (extracellular portion) fused with the secretory alkaline phosphatase (human TSHR with rat LH-CGR subsequence); experiment: bridge assay: standard at 50.0 IU/L on plate-bound TSH receptor chimera B, detected with SEAP-chimera B, chemiluminescence
[30] = molecular target: truncated TSH receptor chimera B (extracellular portion) fused with the secretory alkaline phosphatase (human TSHR with rat LH-CGR subsequence); experiment: bridge assay: standard at 0.8 IU/L on plate-bound TSH receptor chimera B, detected with SEAP-chimera B; RLU relative to zero serum

Chain of truncated TSH receptor chimera B (extracellular portion) fused with the secretory alkaline phosphatase (human TSHR with rat LH-CGR subsequence) (chain, as listed by the source mutant): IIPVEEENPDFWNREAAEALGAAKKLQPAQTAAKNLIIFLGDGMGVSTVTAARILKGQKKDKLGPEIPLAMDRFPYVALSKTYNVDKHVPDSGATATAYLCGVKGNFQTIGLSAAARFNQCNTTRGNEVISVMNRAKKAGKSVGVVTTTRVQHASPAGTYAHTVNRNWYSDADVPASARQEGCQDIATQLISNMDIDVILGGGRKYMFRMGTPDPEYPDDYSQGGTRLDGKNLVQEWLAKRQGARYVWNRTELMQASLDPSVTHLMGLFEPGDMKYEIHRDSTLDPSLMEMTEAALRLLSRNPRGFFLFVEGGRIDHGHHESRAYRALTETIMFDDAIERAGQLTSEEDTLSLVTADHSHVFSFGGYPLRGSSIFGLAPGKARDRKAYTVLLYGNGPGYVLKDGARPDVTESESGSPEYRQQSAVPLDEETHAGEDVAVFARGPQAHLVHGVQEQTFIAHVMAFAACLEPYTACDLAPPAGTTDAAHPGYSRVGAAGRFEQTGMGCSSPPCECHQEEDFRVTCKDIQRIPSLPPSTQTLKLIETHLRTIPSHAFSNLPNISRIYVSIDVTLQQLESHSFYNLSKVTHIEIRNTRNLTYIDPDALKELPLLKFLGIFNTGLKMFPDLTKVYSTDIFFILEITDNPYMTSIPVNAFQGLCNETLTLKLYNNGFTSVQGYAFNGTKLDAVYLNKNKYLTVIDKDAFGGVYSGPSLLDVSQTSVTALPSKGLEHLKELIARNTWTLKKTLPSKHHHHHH

## standard solution WHO 90/672 with a standardized concentration of autoimmune antibody (TSH receptor auto-antibody standard)
[1]
  B/B0: 361
[2]
  RLU Average n = 3: 46600 RLU
[3]
  RLU Average n = 3: 65800 RLU
[4]
  B/B0: 26.6
[5]
  B/B0: 19.7
[6]
  RLU Average n = 3: 117000 RLU
[7]
  B/B0: 4.19
[8]
  RLU Average n = 3: 192000 RLU
[9]
  B/B0: 9.57
[10]
  RLU Average n = 3: 2.48e+06 RLU
[11]
  B/B0: 11.8
[12]
  B/B0: 27.9
[13]
  B/B0: 14.3
[14]
  RLU Average n = 3: 183000 RLU
[15]
  B/B0: 704
[16]
  B/B0: 55.5
[17]
  RLU Average n = 3: 166000 RLU
[18]
  B/B0: 6.77
[19]
  RLU Average n = 3: 382000 RLU
[20]
  RLU Average n = 3: 28800 RLU
[21]
  B/B0: 16.9
[22]
  B/B0: 136
[23]
  RLU Average n = 3: 81500 RLU
[24]
  RLU Average n = 3: 136000 RLU
[25]
  RLU Average n = 3: 3.77e+06 RLU
[26]
  B/B0: 548
[27]
  RLU Average n = 3: 98400 RLU
[28]
  RLU Average n = 3: 939000 RLU
[29]
  RLU Average n = 3: 4.85e+06 RLU
[30]
  B/B0: 24.1
